Data taken from patent publication US20250215089A1 (HARBOUR BIOMED SHANGHAI, published 2025).
Several values for one entry are separate records, joined by “and”; a condition that tells them apart may be missing. Equal entries are not always repeated.

Experiments:
human CD40 [1] = target: T1, human CD40 (human, UniProt P25942 21-277); test: FACS, Raji cells
T1 construct: whole, on cells; also called hCD40; TNFRSF5
Method: (§1) The cells were incubated at 4° C. for 1 hours in the dark. After the incubation, the cells were rinsed twice by adding pre-chilled PBS at 100 μL/well, and centrifuged at 500 g at 4° C. for 5 minutes, and the supernatant was discarded. Then, a fluorescent secondary antibody (goat anti-human IgG (H+L) secondary antibody, Alexa Fluor® 488 conjugate, Invitrogen, #A11013, 1:1000 dilution) was added at 100 μL/well, and the cells were incubated at 4° C. for 30 minutes in the dark. The cells were washed twice with pre-chilled PBS at 200 μL/well, and centrifuged at 500 g at 4° C. for 5 minutes, and the supernatant was discarded. Finally, the cells were resuspended in pre-chilled PBS at 200 μL/well. The fluorescence signal values were read using a BD FACS CANTOII flow cytometer or ACEA NovoCyte flow cytometer, and the data were processed and analyzed using FlowJo v10 software (FlowJo, LLC).

human PD-L1 [2] = target: T2, human PD-L1 (human, UniProt Q9NZQ7 19-290); test: FACS, NCI-H226 cells
T2 construct: whole, on cells; also called hPD-L1; CD274
T2 sequence (Q9NZQ7 19-290): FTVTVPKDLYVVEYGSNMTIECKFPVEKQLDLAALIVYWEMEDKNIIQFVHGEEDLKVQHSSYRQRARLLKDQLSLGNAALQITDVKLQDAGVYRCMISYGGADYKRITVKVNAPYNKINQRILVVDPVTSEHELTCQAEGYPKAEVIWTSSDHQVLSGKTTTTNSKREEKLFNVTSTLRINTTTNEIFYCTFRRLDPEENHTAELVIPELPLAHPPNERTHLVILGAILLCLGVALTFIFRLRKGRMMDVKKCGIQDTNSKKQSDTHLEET
Method: (§2) Specifically, the cells expressing PD-L1 were digested and resuspended in PBS buffer containing 2% BSA. The cells were adjusted to a cell density of 1×10⁶ cells/mL, respectively. The cells were seeded in a 96-well V-bottom plate (Corning, #3894) at 100 μL/well, and the antibody to be tested at 2×final concentration with 4-fold concentration gradient dilution was then added at 100 μL/well. The cells were incubated at 4° C. for 2 hours in the dark. After the incubation, the cells were rinsed twice by adding pre-chilled PBS containing 2% BSA at 100 μL/well, and centrifuged at 500 g at 4° C. for 5 minutes, and the supernatant was discarded. […] The cells were washed twice by adding pre-chilled PBS containing 2% BSA at 100 µL/well, and centrifuged at 500 g at 4° C. for 5 minutes, and the supernatant was discarded. Finally, the cells were resuspended in pre-chilled PBS buffer containing 2% BSA at 200 μL/well. The fluorescence signal values were read using a BD FACS CANTOII flow cytometer or ACEA NovoCyte flow cytometer, and the data were processed and analyzed using FlowJo v10 software (FlowJo, LLC).

human PD-L1 [3] = target: T2, human PD-L1; test: cell-based or functional assay
human CD40 [4] = target: T1, human CD40; test: cell-based or functional assay
human CD40 [5] = target: T1, human CD40; test: FACS, CHO-K1/hCD40 cells
Method: as §1

human PD-L1 [6] = target: T2, human PD-L1; test: FACS, CHO-K1/hPD-L1 cells
Method: as §2

cynomolgus monkey CD40 = target: T3, cynomolgus monkey CD40 (cynomolgus monkey); test: FACS, CHO-K1/cyCD40 cells
T3 construct: whole, on cells; also called cyCD40
Method: as §1

cynomolgus monkey PD-L1 = target: T4, cynomolgus monkey PD-L1 (cynomolgus monkey); test: FACS, CHO-K1/cyPD-L1 cells
T4 construct: whole, on cells; also called cyPD-L1
Method: as §2

human CD40 [7] = target: T1, human CD40; test: FACS, Raji cells; remark: listed apart in the source
Method: as §1
Data processing and graphical analysis were performed using GraphPad Prism 8 software. The binding curve of the antibody to the target cell and parameters, such as EC₅₀ value were obtained by four-parameter nonlinear fitting.

T1 sequence (P25942 21-277): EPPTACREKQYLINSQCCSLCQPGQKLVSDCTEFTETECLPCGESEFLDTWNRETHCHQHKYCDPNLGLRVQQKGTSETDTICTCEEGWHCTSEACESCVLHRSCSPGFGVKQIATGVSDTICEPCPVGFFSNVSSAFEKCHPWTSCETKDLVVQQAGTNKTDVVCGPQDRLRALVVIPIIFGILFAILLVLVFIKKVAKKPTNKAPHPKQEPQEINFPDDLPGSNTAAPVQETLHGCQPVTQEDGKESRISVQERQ

Row | EC50 (human CD40 [1]) | Maximum MFI (human CD40 [1]) | EC50 (human PD-L1 [2]) | Maximum MFI (human PD-L1 [2]) | EC50, Jurkat-NFAT-hPD1 reporter (human PD-L1 [3]) | EC50, HEK293-hCD40-NFκB reporter, + CHO-K1 (human CD40 [4]) | EC50, HEK293-hCD40-NFκB reporter, + CHO-K1/hPD-L1 (human CD40 [4]) | Maximum (RLU), HEK293-hCD40-NFκB reporter, + CHO-K1 (human CD40 [4]) | Maximum (RLU), HEK293-hCD40-NFκB reporter, + CHO-K1/hPD-L1 (human CD40 [4]) | EC50 (human CD40 [5]) | Maximum MFI (human CD40 [5]) | EC50 (human PD-L1 [6]) | Maximum MFI (human PD-L1 [6]) | EC50 (cynomolgus monkey CD40) | Maximum MFI (cynomolgus monkey CD40) | EC50 (cynomolgus monkey PD-L1) | Maximum MFI (cynomolgus monkey PD-L1) | Maximum (RLU), Jurkat-NFAT-hPD1 reporter (human PD-L1 [3]) | EC50 (human CD40 [7]) | Maximum MFI (human CD40 [7]) | Binder
1 | 1.26 nM | 6790 MFI | 0.366 nM | 914 MFI | 0.122 nM and 0.309 nM | 0.334 nM | 0.0312 nM | 3880 RLU | 4780 RLU | 2.5 nM | 17700 MFI | 1.02 nM | 20100 MFI | 1.77 nM | 51300 MFI | 0.629 nM | 4820 MFI |  |  |  | PR007619 (bispecific antibody, human IgG1, kappa, VH of PR006246 (PD-L1) - GS_3 - heavy chain of CD40 IgG PR006504; human IgG1 L234A/L235A/G237A; also called PD-L1×CD40) heavy: QVQLVESGGGVVQPGMSLRLSCAASGFDFSSYGMYWVRQAPGKGQEWVASIRYTGTEKHYADSVKGRFTISRDNSKNTLYLEMNSLRVEDTAVYYCAKNRAIFGVIPDDSDIRGQGTMVTVSSGGSQVQLVQSGAEVKKPGASVKVSCKASGYTFAGYYMYWVRQAPGQGLEWMGWINPDSGAPTYAQKFQGRVTMTRDTSISTAYMELSRLRSDDTAVYYCAREKIYYGSGNYYPSFDYWGQGTLVTVSSASTKGPSVFPLAPSSKSTSGGTAALGCLVKDYFPEPVTVSWNSGALTSGVHTFPAVLQSSGLYSLSSVVTVPSSSLGTQTYICNVNHKPSNTKVDKKVEPKSCDKTHTCPPCPAPEAAGAPSVFLFPPKPKDTLMISRTPEVTCVVVDVSHEDPEVKFNWYVDGVEVHNAKTKPREEQYNSTYRVVSVLTVLHQDWLNGKEYKCKVSNKALPAPIEKTISKAKGQPREPQVYTLPPSREEMTKNQVSLTCLVKGFYPSDIAVEWESNGQPENNYKTTPPVLDSDGSFFLYSKLTVDKSRWQQGNVFSCSVMHEALHNHYTQKSLSLSPGK light: DIQLTQSPSFLSASVGDRVTITCRASQGISSYLAWYQQKPGKAPKLLIYAASTLQSGVPSRFSGSGSGTEFTLTISSLQPEDFATYYCQQLVSYPWTFGQGTKVEIKRTVAAPSVFIFPPSDEQLKSGTASVVCLLNNFYPREAKVQWKVDNALQSGNSQESVTEQDSKDSTYSLSSTLTLSKADYEKHKVYACEVTHQGLSSPVTKSFNRGEC
2 | 1.58 nM | 7650 MFI | 0.764 nM | 959 MFI | 0.234 nM | 0.213 nM | 0.0558 nM | 231000 RLU | 371000 RLU | 2.57 nM | 14200 MFI | 1.29 nM | 20000 MFI | 4.12 nM | 66000 MFI | 0.807 nM | 4620 MFI | 2840 RLU |  |  | PR007275 (bispecific antibody, human IgG1, kappa, VH of PR006247 (PD-L1) - GS_5 - heavy chain of CD40 IgG PR006495; human IgG1 L234A/L235A/G237A; also called PD-L1×CD40) heavy: QVQLVESGGGVVQPGMSLRLSCAASGFDFSSYGMYWVRQAPGKGQEWVASIRYTGTEKHYADSVKGRFTISRDNSKNTLYLEMNSLRVEDTAVYYCAKNRALFGVIPDASDIRGQGTMVTVSSGGGGSQVQLVQSGAEVKKPGASVKVSCKASGYTFAGYYMYWVRQAPGQGLEWMGWINPDSGAPTYAQKFQGRVTMTRDTSISTAYMELSRLRSDDTAVYYCAREKIYYGSGNYYPSFDYWGQGTLVTVSSASTKGPSVFPLAPSSKSTSGGTAALGCLVKDYFPEPVTVSWNSGALTSGVHTFPAVLQSSGLYSLSSVVTVPSSSLGTQTYICNVNHKPSNTKVDKKVEPKSCDKTHTCPPCPAPEAAGAPSVFLFPPKPKDTLMISRTPEVTCVVVDVSHEDPEVKFNWYVDGVEVHNAKTKPREEQYNSTYRVVSVLTVLHQDWLNGKEYKCKVSNKALPAPIEKTISKAKGQPREPQVYTLPPSREEMTKNQVSLTCLVKGFYPSDIAVEWESNGQPENNYKTTPPVLDSDGSFFLYSKLTVDKSRWQQGNVFSCSVMHEALHNHYTQKSLSLSPGK light: DIQLTQSPSFLSASVGDRVTITCRASQGISSYLAWYQQKPGKAPKLLIYAASTLQSGVPSRFSGSGSGTEFTLTISSLQPEDFATYYCQQLASYPWTFGQGTKVEIKRTVAAPSVFIFPPSDEQLKSGTASVVCLLNNFYPREAKVQWKVDNALQSGNSQESVTEQDSKDSTYSLSSTLTLSKADYEKHKVYACEVTHQGLSSPVTKSFNRGEC
3 |  |  |  |  |  |  |  |  |  |  |  |  |  |  |  |  |  |  | 0.35 nM | 12200 MFI | PR006504 (antibody, human IgG1, kappa, V domains shown, Variant of PR003379, L: N92V; human IgG1 L234A, L235A, G237A) VH: QVQLVQSGAEVKKPGASVKVSCKASGYTFAGYYMYWVRQAPGQGLEWMGWINPDSGAPTYAQKFQGRVTMTRDTSISTAYMELSRLRSDDTAVYYCAREKIYYGSGNYYPSFDYWGQGTLVTVSS VL: DIQLTQSPSFLSASVGDRVTITCRASQGISSYLAWYQQKPGKAPKLLIYAASTLQSGVPSRFSGSGSGTEFTLTISSLQPEDFATYYCQQLVSYPWTFGQGTKVEIKR
